Test results: PMC3834312

Experiments:
Experiment in all cases: MODified Histone Peptide Array
[1] = target: H2A K13ac (histone peptide array spots containing the mark); details: whole cell lysate from HEK293 cells transiently transfected; ECL plus western blot detecting reagent; read off a plot
[2] = target: H2A K9ac (histone peptide array spots containing the mark); details: whole cell lysate from HEK293 cells transiently transfected; ECL plus western blot detecting reagent; read off a plot
[3] = target: H4 K12ac (histone peptide array spots containing the mark); details: whole cell lysate from HEK293 cells transiently transfected; ECL plus western blot detecting reagent; parent: est. 8.1; read off a plot
[4] = target: H4 K5ac (histone peptide array spots containing the mark); details: whole cell lysate from HEK293 cells transiently transfected; ECL plus western blot detecting reagent; parent: est. 9.4; read off a plot
[5] = target: H4 K8ac (histone peptide array spots containing the mark); details: whole cell lysate from HEK293 cells transiently transfected; ECL plus western blot detecting reagent; parent: est. 10; read off a plot
[6] = target: H4 R19me2s (histone peptide array spots containing the mark); details: whole cell lysate from HEK293 cells transiently transfected; ECL plus western blot detecting reagent; read off a plot
[7] = target: H4 R24me2a (histone peptide array spots containing the mark); details: whole cell lysate from HEK293 cells transiently transfected; ECL plus western blot detecting reagent; read off a plot
[8] = target: H4 R3me2a (histone peptide array spots containing the mark); details: whole cell lysate from HEK293 cells transiently transfected; ECL plus western blot detecting reagent; parent: est. 5.9; read off a plot
[9] = target: H4 R3me2s (histone peptide array spots containing the mark); details: whole cell lysate from HEK293 cells transiently transfected; ECL plus western blot detecting reagent; parent: est. 5.9; read off a plot
[10] = target: H4 S1P (histone peptide array spots containing the mark); details: whole cell lysate from HEK293 cells transiently transfected; ECL plus western blot detecting reagent; parent: est. 5.3; read off a plot

## BRD4-SF-FLAG (BRD4 short isoform with a single FLAG epitope tag at the C-terminus) (from UniProt O60885-2) Y433A
[1]
  other: Specificity Factor: 4.5
[2]
  other: Specificity Factor: 4.4
[3]
  other: Specificity Factor: 6.1
[4]
  other: Specificity Factor: 11
[5]
  other: Specificity Factor: 13
[6]
  other: Specificity Factor: 3.4
[7]
  other: Specificity Factor: 3.9
[8]
  other: Specificity Factor: 6.7
[9]
  other: Specificity Factor: 5.5
[10]
  other: Specificity Factor: 3.4
